In US20170101472A1 (Regeneron, published 2017):
Positions count from the first letter of the chain named. In names and notes the source's numbering stands.

How the values were obtained:
[1] = target: T1, monkey LAG3 (mfLAG3) expressed on HEK293 cells (cynomolgus monkey, UniProt P18627 24-525 (human entry)); assay: electrochemiluminescence cell binding
T1 construct: also called HEK293/mfLAG3; HEK293-mfLAG3
T1 chain: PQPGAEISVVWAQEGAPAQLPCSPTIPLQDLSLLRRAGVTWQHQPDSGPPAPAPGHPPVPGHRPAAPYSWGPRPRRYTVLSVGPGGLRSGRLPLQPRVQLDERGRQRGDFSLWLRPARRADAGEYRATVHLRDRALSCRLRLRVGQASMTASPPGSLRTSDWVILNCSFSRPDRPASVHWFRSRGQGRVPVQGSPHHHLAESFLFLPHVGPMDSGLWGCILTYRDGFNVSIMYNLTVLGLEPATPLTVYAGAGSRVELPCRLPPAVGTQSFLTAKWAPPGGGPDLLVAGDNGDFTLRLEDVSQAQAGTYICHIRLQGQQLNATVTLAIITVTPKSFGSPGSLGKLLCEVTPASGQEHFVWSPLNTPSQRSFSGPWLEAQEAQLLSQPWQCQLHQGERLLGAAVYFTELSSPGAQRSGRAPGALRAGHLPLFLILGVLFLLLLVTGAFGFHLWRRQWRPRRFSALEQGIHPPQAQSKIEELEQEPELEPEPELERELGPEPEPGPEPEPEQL
Experimental: (§1) To investigate the ability of a panel of anti-LAG3 monoclonal antibodies to bind cell-surface expressed LAG3, an in vitro binding assay utilizing human and monkey LAG3 expressing cell lines in an electrochemiluminescence based detection platform [Meso Scale Diagnostics, Rockville, Md.—(MSD)] was developed.
(§2) Experiments were carried out according to following procedure. Cells from the three cell lines described above were rinsed once in 1×PBS buffer without Ca²⁺/Mg²⁺ followed by 10-minute incubation at 37° C. with Enzyme Free Cell Dissociation Solution. […] Approximately 10,000 cells per well in the cell-washing buffer were seeded into the 96-well carbon electrode plates (MULTI-ARRAY high bind plate, MSD) and incubated for 1 hour at 37° C. to allow the cells to adhere. Nonspecific binding sites were blocked by 2% BSA (w/v) in PBS for 1 hour at room temperature. […] The plates were then washed to remove the unbound antibodies using an AquaMax2000 plate washer (MDS Analytical Technologies). The plate-bound antibodies were detected with a SULFO-TAG™-conjugated anti-human IgG antibody (MSD) for 1 hour at room temperature. After washes, the plates were developed with the Read Buffer (MSD) according to manufacturer's recommended procedure and the luminescent signals were recorded with a SECTOR Imager 6000 (MSD) instrument. The direct binding signals (in relative light units—RLU) were analyzed as a function of the antibody concentration and the data were fitted with a sigmoidal (four-parameter logistic) dose-response model using Graph Pad Prism™ software. The potency of each antibody was determined by calculating EC₅₀.

[2] = target: T1, monkey LAG3 (mfLAG3) expressed on …; assay: electrochemiluminescence cell binding, HEK293-mfLAG3
Experimental: as §1, §2

[3] = target: T1, monkey LAG3 (mfLAG3) expressed on …; assay: flow cytometry, HEK293/mfLAG3 cells; FACS on HEK293/mfLAG3 cells
Experimental: (§3) The serially diluted antibodies were added to the cell suspension and incubated for 15-30 minutes on ice. The cells were centrifuged and pellets were washed with staining buffer to remove unbound antibodies. […] The cells were centrifuged and pellets were washed with staining buffer to remove unbound secondary F(ab′)2 and fixed overnight with a 1:1 dilution of Cytofix (BD Biosciences, #554655) and staining buffer. Following day, fixed cells were centrifuged and pellets were washed with staining buffer, resuspended and filtered. Fluorescence measurements were acquired on HyperCyt® cytometer and analyzed in ForeCyt™ (IntelliCyt; Albuquerque, N. Mex.) to determine the mean fluorescence intensities (MFI). The EC₅₀ values were calculated from a four-parameter logistic equation over an 11-point response curve using GraphPad Prism. EC₅₀ was defined as the concentration of antibody at which 50% of maximal binding signal is detected. The MFI ratio for each antibody was calculated by dividing the MFI at 100 nM by MFI at 0 nM of antibody concentration.

[4] = target: T2, cynomolgus LAG3 on activated CD4+ and CD8+ cynomolgus T cells (cynomolgus); assay: FACS, stimulated cynomolgus CD4+ T cells, donor 1
T2 chain: T1 chain
Experimental: (§4) Next, stimulated cynomolgus T-cells from each donor, as described above, were stained with LIVE/DEAD dye (Molecular Probes) to distinguish between live and dead cells via FACS. Subsequently, cells were co-incubated with PE-conjugated anti-CD8 and FITC-conjugated anti-CD4 for 15 min on ice to enable the detection of CD4 and CD8 positive and negative cell populations.
(§5) Next, the serially diluted antibodies were directly labeled using Zenon Alexa-Fluor 647 (Molecular Probes) and incubated with the cynomolgus CD4+/CD8+ T-cell suspension for 15-30 min on ice. Cells were centrifuged and pellets washed with staining buffer to remove unbound antibodies and fixed for 12 h with a 1:1 dilution of Cytofix (BD Biosciences) and staining buffer. Following the incubation period, fixation buffer was removed and pellets were resuspended in staining buffer, filtered, and used for fluorescence measurements.
(§6) Fluorescence measurements were acquired on the Fortessa (Becton Dickinson) and data analyzed in FlowJo to determine the mean fluorescence intensities (MFI). EC₅₀ values were calculated from a four-parameter logistic equation over an 11-point response curve using GraphPad Prism.

[5] = target: T2, cynomolgus LAG3 on activated CD4+ and …; assay: FACS, stimulated cynomolgus CD8+ T cells, donor 2
Experimental: as §4, §5, §6

[6] = target: T2, cynomolgus LAG3 on activated CD4+ and …; assay: FACS, stimulated cynomolgus CD4+ T cells, donor 2
Experimental: as §4, §5, §6

[7] = target: T2, cynomolgus LAG3 on activated CD4+ and …; assay: FACS, stimulated cynomolgus CD8+ T cells, donor 1
Experimental: as §4, §5, §6

[8] = target: T1, monkey LAG3 (mfLAG3) expressed on …; assay: flow cytometry, HEK293/mfLAG3 cells; FACS on HEK293/mfLAG3 cells; MFI ratio 100 nM/0 nM
Experimental: as §3

B1: H4H15479P (antibody, human IgG4, V domains shown)
VH: QVQLQQWGAGLLNPSETLSLTCAVYGGAFSDYYWNWIRQPPGKGLEWIGEINHRGSTNYNPSLKSRVTISVDTSKNQFSLRMSSVTAADAAVYYCARGEDYDIWNGYYQEKWGQGTLVTVSS
VL: EIVLTQSPATLSLSPGERATLSCRASQSISTYLAWYQQKPGQAPRLLIYDASKRATGIPARFSGSGSGTDFTLTISSLEPEDFVVYYCHQRSNWPLTFGGGTKVEIK
Ratio of 100 nM antibody binding HEK293-mfLAG3 to HEK293 cells [1]: 2.1
EC50 [2]: 73.9 nM

B2: H4sH15482P (antibody, human IgG4 S228P, kappa)
heavy: QVQLVESGGGVVQPGRSLRLSCVASGFTFSSYGMHWVRQAPGKGLEWVAIIWYDGSNKYYADSVKGRFTISRDNSKNTQYLQMNSLRAEDTAVYYCASVATSGDFDYYGMDVWGQGTTVTVSSASTKGPSVFPLAPCSRSTSESTAALGCLVKDYFPEPVTVSWNSGALTSGVHTFPAVLQSSGLYSLSSVVTVPSSSLGTKTYTCNVDHKPSNTKVDKRVESKYGPPCPPCPAPPVAGPSVFLFPPKPKDTLMISRTPEVTCVVVDVSQEDPEVQFNWYVDGVEVHNAKTKPREEQFNSTYRVVSVLTVLHQDWLNGKEYKCKVSNKGLPSSIEKTISKAKGQPREPQVYTLPPSQEEMTKNQVSLTCLVKGFYPSDIAVEWESNGQPENNYKTTPPVLDSDGSFFLYSRLTVDKSRWQEGNVFSCSVMHEALHNHYTQKSLSLSLGK
light: EIVLTQSPATLSLSPGERTTLSCRASQRISTYLAWYQQKPGQAPRLLIYDASKRATGIPARFSGSGSGTGFTLTISSLEPEDFAVYYCQQRSNWPLTFGGGTKVEIKRTVAAPSVFIFPPSDEQLKSGTASVVCLLNNFYPREAKVQWKVDNALQSGNSQESVTEQDSKDSTYSLSSTLTLSKADYEKHKVYACEVTHQGLSSPVTKSFNRGEC
notes: H4sH = modified human IgG4 Fc; also called mAb1
EC50 [3]: 1.15 nM
EC50 [4]: 1.2 nM
EC50 [5]: 0.41 nM
EC50 [6]: 0.38 nM
EC50 [7]: 0.46 nM

B3: H4H15482P (antibody, human IgG4 S228P, kappa)
heavy: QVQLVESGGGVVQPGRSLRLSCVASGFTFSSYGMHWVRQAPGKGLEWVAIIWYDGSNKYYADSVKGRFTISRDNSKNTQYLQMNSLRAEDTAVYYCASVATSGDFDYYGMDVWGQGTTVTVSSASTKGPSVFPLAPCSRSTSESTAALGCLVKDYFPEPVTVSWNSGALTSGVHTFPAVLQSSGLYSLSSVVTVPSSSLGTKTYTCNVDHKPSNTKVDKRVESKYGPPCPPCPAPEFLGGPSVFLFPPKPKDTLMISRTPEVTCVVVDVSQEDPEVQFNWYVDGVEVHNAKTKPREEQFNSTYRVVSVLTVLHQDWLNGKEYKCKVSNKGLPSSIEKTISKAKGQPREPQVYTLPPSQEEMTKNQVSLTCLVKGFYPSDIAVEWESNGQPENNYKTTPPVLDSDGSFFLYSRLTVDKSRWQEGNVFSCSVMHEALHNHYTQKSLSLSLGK
light: B2 light
notes: H4H = human IgG4 Fc with S108P
EC50 [3]: 2.2 nM

B4: H4sH15498P2 (antibody, V domains shown)
VH: EVQLVESGGGLVQPGGSLRLSCAASGFTFTSYAMTWVRQAPGKGLEWVSDISGSGGRTYYADSVKGRFTISRDNSKNMLYLQMNILRAEDTAVYHCAKGTGQQVDLYNYYYALDVWGQGTTVTVSS
VL: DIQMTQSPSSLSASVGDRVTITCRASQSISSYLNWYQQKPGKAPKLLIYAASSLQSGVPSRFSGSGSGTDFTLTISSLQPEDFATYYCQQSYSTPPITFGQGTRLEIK
notes: H4sH = human IgG4 Fc with 2 or more amino acid changes as disclosed in US20140243504
Ratio of 100 nM antibody binding HEK293-mfLAG3 to HEK293 cells [1]: 32.7
EC50 [2]: 20 nM

B5: H4H15498P2 (antibody, human IgG4, V domains shown)
VH: B4 VH
VL: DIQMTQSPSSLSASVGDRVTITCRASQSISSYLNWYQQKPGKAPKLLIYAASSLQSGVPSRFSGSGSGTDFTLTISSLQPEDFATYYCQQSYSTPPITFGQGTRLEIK
notes: H4H = human IgG4 Fc with S108P hinge mutation
Ratio of 100 nM antibody binding HEK293-mfLAG3 to HEK293 cells [1]: 13.8
EC50 [2]: 9.68 nM

B6: H4sH14813N (antibody, human IgG4 S228P, kappa, V domains shown)
VH: QVQLQQWGAGLLKPSETLSLTCAVYGGSFSGYYWNWIRQPPGKGLEWVGEISHRGSTNYNPSLKSRVTISLDTSKNQFSLKLTSVTAADTAVYYCSRDEELEFRFFDYWGQGTLVTVSS
VL: EIVLTQSPATLSLSPGERATLSCRASQSVSSYLAWYQQKPGQAPRLLVYGASNRATGIPARFSGSGSGTDFTLTISSLEPEDFAFYYCQQRSNWPLTFGGGTKVEIKR
notes: H4sH = modified human IgG4 Fc
EC50 [3]: 1.57 nM
EC50 [4]: 0.42 nM
Ratio of MFI (11 nM/0 nM) [4]: 1.3
EC50 [5]: 0.11 nM
Ratio of MFI (11 nM/0 nM) [5]: 6.3
EC50 [6]: 0.22 nM
Ratio of MFI (11 nM/0 nM) [6]: 1.5
Ratio of MFI (100 nM/0 nM) [8]: 16.7
EC50 [7]: 0.085 nM
Ratio of MFI (11 nM/0 nM) [7]: 3.5

B7: H4H14813N (antibody, human IgG4, V domains shown)
VH: B6 VH
VL: B1 VL with I29V, T31S, I48V, D50G, K53N, V84A, V85F, H89Q
notes: as for B5
EC50 [3]: 1.42 nM
Ratio of MFI (100 nM/0 nM) [8]: 17.1

B8: H4H17819P (antibody, human IgG4, V domains shown)
VH: EVQLVESGGGLVQPGGSLRLSCVASGFTFSLYAMTWVRQVPGKGLEWVSTISGSGGGTYYTDSVKGRFTISRDNSKNTLYLQMNSLRADDTAVFYCTKESTTGTYSYFYGMDVWGQGTTVTVSS
VL: DIQMTQSPSSLSASVGDRVTITCRASQTISSYLNWYQQKPGKAPKLLIYAASSLQSGVPSRFSGSGSGTDFTLTLSGLQPEDFATYYCQQSYSTPLTFGGGTKVEIK
notes: as for B5
Ratio of 100 nM antibody binding HEK293-mfLAG3 to HEK293 cells [1]: 8.3
EC50 [2]: 40.2 nM

B9: H4H17826P2 (antibody, human IgG4, V domains shown)
VH: EVQLVESGGGLVQPGGSLRLSCAASGFTFSSYEMNWVRQAPGKGLEWVSYISSSGNTKDYAGSVKGRVTISRDNAKNLLYLQMNSLRAEDTAVYHCARDGGHYDILTGSMSYYYYALDVWGQGTTVTVSS
VL: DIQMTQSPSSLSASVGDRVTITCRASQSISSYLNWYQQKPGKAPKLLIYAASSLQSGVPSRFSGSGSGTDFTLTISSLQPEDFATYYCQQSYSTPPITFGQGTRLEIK
notes: as for B5
Ratio of 100 nM antibody binding HEK293-mfLAG3 to HEK293 cells [1]: 4.7
EC50 [2]: 7.85 nM

B10: H4H17828P2 (antibody, human IgG4, V domains shown)
VH: EVQLVESGGGLVQPGGSLRLSCAASGFTFKTYAMSWVRQAPGRGLEWVSGISGSGSTSYYADSVKGRFTISRDNYKKTLSLQMNSLRAEDTAVYYCALDIMATVGGLFNNWGQGTLVTVSS
VL: not shown
notes: as for B5
Ratio of 100 nM antibody binding HEK293-mfLAG3 to HEK293 cells [1]: 6
EC50 [2]: 13.1 nM

B11: H4sH15479P (antibody, V domains shown)
VH: B1 VH
VL: B1 VL
EC50 [3]: 0.902 nM
Ratio of MFI (100 nM/0 nM) [8]: 20.7
